B1: endogenous BiP (CHO cells) (natural protein)
chain: not shown
notes: BiP, the ER luminal Hsp70, Chinese hamster, endogenous in CHO cells; detected by immunoblot with anti-hamster BiP serum; source: endogenous, CHO cell lysate
B2: IRE1^(LD Q105C)-GST (domain or fragment, human, UniProt O75460 19-486, looked up)
chain: IFGSTSTVTLPETLLFVSTLDGSLHAVSKRTGSIKWTLKEDPVLQVPTHVEEPAFLPDPNDGSLYTLGSKNNEGLTKLPFTIPELVCASPCRSSDGILYMGKKQDIWYVIDLLTGEKQQTLSSAFADSLCPSTSLLYLGRTEYTITMYDTKTRELRWNATYFDYAASLPEDDVDYKMSHFVSNGDGLVVTVDSESGDVLWIQNYASPVVAFYVWQREGLRKVMHINVAVETLRYLTFMSGEVGRITKWKYPFPKETEAKSKLTPTLYVGKYSTSLYASPSMVHEGVAVVPRGSTLPLLEGPQTDGVTIGDKGECVITPSTDVKFDPGLKSKNKLNYLRNYWLLIGHHETPLSASTKMLERFPNNLPKHRENVIPADSEKKSFEEVINLVDQTSENAPTTVSRDVEEKPAHAPARPEAPVDSMLKDMATIILSTFLLIGWVAFIITYPLSMHQQQQLQHQQFQKELEKI
modifications: Q105C-Q105C disulfide between two copies in the dimeric species
notes: IRE1α, human, luminal and transmembrane domains as in IRE1^LD-GST (residues 19-486), with Q105C; a modified version of IRE1^LD-GST; source: ΔERdj4 CHO cells, transfected, in lysate; not shown: GST, C-terminal, kept

Assays:
IRE1^LD-GST = biological target: T1, IRE1^LD-GST (human, UniProt O75460 19-486); experiment: pull-down; GST fusions recovered on glutathione Sepharose 4B from lysates of transfected ΔERdj4 CHO cells (co-transfected with ERdj4, ERdj4^QPD or ERdj6 where indicated); ATP-depleting lysis buffer; endogenous BiP by immunoblot; where indicated beads incubated 5 min with 3 mM ATP; conditions: partners not purified
T1 construct: IRE1α, human, entire luminal and transmembrane domains, residues 19-486; the cytosolic effector domain is replaced by GST; also called IRE1α luminal and transmembrane domain fused to cytosolic GST; source: ΔERdj4 CHO cells, transfected, in lysate; not shown: GST, C-terminal, kept
T1 sequence (looked up): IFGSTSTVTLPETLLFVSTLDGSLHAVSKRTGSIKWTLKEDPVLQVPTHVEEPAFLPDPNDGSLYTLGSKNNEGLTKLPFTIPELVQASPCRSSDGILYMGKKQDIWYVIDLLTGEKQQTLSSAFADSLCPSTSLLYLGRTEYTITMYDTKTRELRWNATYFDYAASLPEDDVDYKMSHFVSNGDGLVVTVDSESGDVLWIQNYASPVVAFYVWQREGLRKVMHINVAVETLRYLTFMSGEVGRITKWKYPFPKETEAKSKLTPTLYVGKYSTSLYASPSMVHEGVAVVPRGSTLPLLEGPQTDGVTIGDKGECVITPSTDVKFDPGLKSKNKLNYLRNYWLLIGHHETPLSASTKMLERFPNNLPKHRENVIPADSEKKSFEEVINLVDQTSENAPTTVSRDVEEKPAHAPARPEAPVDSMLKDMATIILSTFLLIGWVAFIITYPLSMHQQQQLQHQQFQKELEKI

[1] = biological target: the molecule itself; experiment: cross-linking; spontaneous Q105C-Q105C disulfide of IRE1^(LD Q105C)-GST in transfected ΔERdj4 CHO cells (alone or with ERdj4 or ERdj4^QPD); glutathione Sepharose; non-reducing SDS-PAGE and immunoblot

Row | Binder | fold recovery of BiP with co-transfected WT ERdj4 against ERdj4^QPD (IRE1^LD-GST) [fold] | fold decrease of the disulfide-linked dimeric fraction with co-transfected WT ERdj4 [1] [fold] | stoichiometry N [1]
1 | B1 | 2.5 | – | –
2 | B2 | – | 2.5 | 2

From publication PMC5733394, “A J-Protein Co-chaperone Recruits BiP to Monomerize IRE1 and Repress the Unfolded Protein Response” (Cell, 2017)
